According to article PMC5686127 (2017):

What was measured:
[1] = molecular target: T1, CHD4 PHD1-linker (aa 361–443) (human, UniProt Q14839 361-443); assay: 75 mM NaCl
[2] = molecular target: T1, CHD4 PHD1-linker (aa 361–443); assay: 150 mM NaCl
[3] = molecular target: CHD4 PHD2 (443–498) (human, UniProt Q14839 443-498); assay: 150 mM NaCl
[4] = molecular target: CHD4 PHD1/2 (aa 361–503) (human, UniProt Q14839 361-503); assay: 150 mM NaCl
[5] = molecular target: CHD4 linker-PHD2 (aa 414–503) (human, UniProt Q14839 414-503); assay: 150 mM NaCl
[6] = molecular target: CHD4 PHD1 (aa 362–417) (human, UniProt Q14839 362-417); assay: 150 mM NaCl
CHD4 PHD1 (aa 362–417), sequence (Q14839 362-417): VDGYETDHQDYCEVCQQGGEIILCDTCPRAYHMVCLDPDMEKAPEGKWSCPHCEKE

T1 sequence (Q14839 361-443): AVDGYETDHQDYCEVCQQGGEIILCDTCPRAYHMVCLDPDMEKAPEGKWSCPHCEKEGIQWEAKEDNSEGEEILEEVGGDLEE
CHD4 PHD1/2 (aa 361–503), sequence (Q14839 361-503): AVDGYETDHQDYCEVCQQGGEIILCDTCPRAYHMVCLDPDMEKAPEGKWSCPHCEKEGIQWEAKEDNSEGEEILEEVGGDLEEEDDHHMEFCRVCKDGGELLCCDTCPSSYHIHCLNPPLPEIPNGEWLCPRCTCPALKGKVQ
CHD4 linker-PHD2 (aa 414–503), sequence (Q14839 414-503): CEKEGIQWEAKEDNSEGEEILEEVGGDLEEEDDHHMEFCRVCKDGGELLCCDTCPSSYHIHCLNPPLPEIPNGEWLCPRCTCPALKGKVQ
CHD4 PHD2 (443–498), sequence (Q14839 443-498): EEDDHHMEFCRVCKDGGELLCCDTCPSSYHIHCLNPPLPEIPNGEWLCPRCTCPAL

## ARTKQTARKSTG [histone H3 peptide (aa 1–12)]
[1]
  Kd: 300 nM
[2]
  Kd: 500 nM
[3]
  Kd: 3000 nM
[4]
  Kd: 220 nM
[5]
  Kd: 270 nM
[6]
  Kd: 18 µM
